According to US6835382B2, “Ii peptide therapeutics to enhance antigen presentation” (University of Massachusetts, priority 1996, dated 2004):
Non-standard residues stand in square brackets, D forms with d. hArg = N=C(N)NCCCC[C@H](N)C(=O)O; Cit = NC(=O)NCCC[C@H](N)C(=O)O; Orn = NCCC[C@H](N)C(=O)O

Biological target: T1, murine E^d MHC class II allele (Mus musculus, UniProt P01904+P01915)
T1 sequence (P01904 26-255): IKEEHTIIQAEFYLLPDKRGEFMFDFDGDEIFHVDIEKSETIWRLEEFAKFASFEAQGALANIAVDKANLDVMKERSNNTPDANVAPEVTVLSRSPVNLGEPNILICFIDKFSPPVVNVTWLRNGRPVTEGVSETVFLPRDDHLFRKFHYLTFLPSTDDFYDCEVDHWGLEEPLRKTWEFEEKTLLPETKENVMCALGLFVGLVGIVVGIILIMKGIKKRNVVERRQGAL
T1 sequence (P01915 27-264 limits assumed): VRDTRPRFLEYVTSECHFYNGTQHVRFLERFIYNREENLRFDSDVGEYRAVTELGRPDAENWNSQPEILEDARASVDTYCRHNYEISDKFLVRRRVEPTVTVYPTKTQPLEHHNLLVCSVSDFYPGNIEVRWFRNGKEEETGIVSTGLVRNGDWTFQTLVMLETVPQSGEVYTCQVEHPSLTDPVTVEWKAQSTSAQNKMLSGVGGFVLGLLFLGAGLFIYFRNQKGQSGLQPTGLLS
Test: simultaneous assay, E^d allele (A20 APC, G28.C9 T hybridoma, HEL106-116; HT-2 [3H]TdR readout)
Type: cell-based
Set-up: The A20 and CH27 B cell lymphoma lines express H-2^d and H-2^k alleles, respectively; endogenous in cells; host or cells: A20 B cell lymphoma (mitomycin C-treated or paraformaldehyde-fixed)
How it was run: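 Antigenic peptide, mitomycin C-treated APC, effector compound and allele-restricted T hybridoma cultured together for 24 h. Supernatant then transferred to interleukin-dependent HT-2 cells. T cell activation quantified as [3H]TdR uptake by HT-2 cells.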

[1] = Table 4, AE109 homolog 64 μM, supernatant 1:2
[2] = Table 10, AE peptide 16 μM (second value), supernatant 1:2
[3] = Table 10, AE peptide 64 μM (first value), supernatant 1:2
[4] = Table 1, AE peptide 16 μM (second value), 0.4 μM HEL106-116, supernatant 1:4
[5] = Table 1, AE peptide 64 μM (first value), 0.4 μM HEL106-116, supernatant 1:4
[6] = Table 8, AE peptide 4 μM (third), supernatant 1:8
[7] = Table 8, AE peptide 16 μM (second), supernatant 1:8
[8] = Table 8, AE peptide 64 μM (first), supernatant 1:8

**Q.** With Ac-Y Q MKLPKSAK-NH2 [AE138] as the substance, how does the “Times Baseline Response, E^d” value [1] read?
**A.** 0.7

**Q.** Which “Times Baseline Response, E^d” value [1] does the source give for Ac-Y Y MKLPKSAK-NH2 [AE140] here?
**A.** 0.7

**Q.** Which “Times Baseline Response, E^d” value [1] does the source give for Ac-YAMKLPKSAK-NH2 [AE121] here?
**A.** 1.1

**Q.** And the “Times Baseline Response, E^d” value [2]?
**A.** 1.9

**Q.** And the “Times Baseline Response, E^d” value [3]?
**A.** 2.7

**Q.** How did the “Times Baseline Response, E^d” value [4] turn out when Ac-YRM-NH2 [AE118] was run?
**A.** 0.6

**Q.** And the “Times Baseline Response, E^d” value [5]?
**A.** 1.0

**Q.** For Ac-YRMK-NH2 [AE117], which “Times Baseline Response, E^d” value [4] is on record?
**A.** 1.0

**Q.** And the “Times Baseline Response, E^d” value [5]?
**A.** 2.3

**Q.** “Ac-YRMKL hydrP KSAK-NH2 (Ac-YRMKL[hydrP]KSAK-NH2) [AE143]” was tested. Which “Times Baseline Response, E^d” value [6] did it give?
**A.** 8.0

**Q.** What about the “Times Baseline Response, E^d” value [7] of the same substance?
**A.** 19.6,

**Q.** What about the “Times Baseline Response, E^d” value [8] of the same substance?
**A.** 19.4,

**Q.** Which “Times Baseline Response, E^d” value [4] does the source give for Ac-YRMKL-NH2 [AE116] here?
**A.** 2.1

**Q.** And the “Times Baseline Response, E^d” value [5]?
**A.** 7.1

**Q.** With Ac-YRMKLP-NH2 [AE115] as the substance, how does the “Times Baseline Response, E^d” value [4] read?
**A.** 5.7

**Q.** And the “Times Baseline Response, E^d” value [5]?
**A.** 19.9

**Q.** For Ac-YRMKLPK-NH2 [AE113], which “Times Baseline Response, E^d” value [4] is on record?
**A.** 23.1

**Q.** What about the “Times Baseline Response, E^d” value [5] of the same substance?
**A.** 36.3

**Q.** And the “Times Baseline Response, Ed” value (Table 3, AE peptide 64 μM, supernatant 1:4)?
**A.** 12.3

**Q.** Which “Times Baseline Response, E^d” value [4] does the source give for Ac-YRMKLPKSAK-NH2 [AE109] here?
**A.** 20.8

**Q.** And the “Times Baseline Response, E^d” value [5]?
**A.** 39.3

**Q.** And the “Times Baseline Response, E^d” value (Table 2, AE peptide 64 μM, 0.05 μM HEL106-116, supernatant 1:2)?
**A.** 25.5

**Q.** And the “Times Baseline Response, E^d” value [1]?
**A.** 3.3

**Q.** And the “Times Baseline Response, E^d” value [6]?
**A.** 7.4

**Q.** And the “Times Baseline Response, E^d” value [7]?
**A.** 17.6,

**Q.** What about the “Times Baseline Response, E^d” value [8] of the same substance?
**A.** 16.4,

**Q.** What about the “Times Baseline Response, E^d” value [2] of the same substance?
**A.** 24.3

**Q.** What about the “Times Baseline Response, E^d” value [3] of the same substance?
**A.** 27.5

**Q.** Which “Times Baseline Response, E^d” value [1] does the source give for Ac-Y[Cit]MKLPKSAK-NH2 [AE131] here?
**A.** 2.8

**Q.** And the “Times Baseline Response, E^d” value (Table 15, AE peptide 16 μM, supernatant 1:4)?
**A.** 1.6

**Q.** For Ac-Y[Orn]MKLPKSAK-NH2 [AE130], which “Times Baseline Response, E^d” value [1] is on record?
**A.** 0.9

**Q.** Which results are given for Ac-Y[hArg]MKLPKSAK-NH2 [AE132]?
**A.** Times Baseline Response, E^d [1]: 1.8; Times Baseline Response, E^d (Table 16, AE peptide 4 μM, supernatant 1:8): 3.9

**Q.** How did the “Times Baseline Response, E^d” value (Table 11, AE peptide 64 μM, supernatant 1:8) turn out when Ac-l RMKLPK-NH2 [AE160] was run?
**A.** 11.0

**Q.** Which “Times Baseline Response, E^d” value [4] does the source give for YRMKLPKSAKPVSQMR [AE101] here?
**A.** 4.9

**Q.** And the “Times Baseline Response, E^d” value [5]?
**A.** 13.6
